Target: T1, CD3 receptor (CD3ε subunit of the T cell receptor complex) (Homo sapiens, UniProt P07766)
T1 construct: also called CD3 antigen; CD3 receptors
Experiment: flow cytometry on cells
Settings: one partner purified

T1 sequence (P07766 23-207, one chain of several): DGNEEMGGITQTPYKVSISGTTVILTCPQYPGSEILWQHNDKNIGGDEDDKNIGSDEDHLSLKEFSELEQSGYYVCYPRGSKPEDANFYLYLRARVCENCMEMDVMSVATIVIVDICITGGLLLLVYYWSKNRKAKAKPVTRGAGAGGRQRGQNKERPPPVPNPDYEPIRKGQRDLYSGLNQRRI

Row | Binder | binding result
1 | scFv OKT3 wild-type (scFv, V domains shown, also called OKT3 single chain variable fragment) VH: not shown VL: QIVLTQSPAIMSASPGEKVTMTCSASSSVSYMNWYQQKSGTSPKRWIYDTSKLASGVPAHFRGSGSGTSYSLTISGMEAEDAATYYCQQWSSNPFTFGSGTKLEIN | binds
2 | scFv OKT3 E129AzK (scFv, V domains shown, also called scFv OKT3 E129AzK variant) VH: not shown VL: QIVLTQSPAIMSASPGEKVTMTCSASSSVSYMNWYQQKSGTSPKRWIYDTSKLASGVPAHFRGSGSGTSYSLTISGMEAEDAATYYCQQWSSNPFTFGSGTKLEIN | binds

From publication PMC9733292 (Journal of Translational Medicine, 2022)
